IC50 and inhibition in TSNA, about 25 µg antibody data for two substances are collected here from patent US20110008383A1.

In one test the target is DR 13 molecules (UniProt P01903). The experiment in a line: peptide competition assay with DR 13 molecules.
Test [1] concerns the target CS protein on PfPb transgenic sporozoites (P. falciparum CS repeats in the context of the P. berghei CS protein). In words: cell-based or functional assay.

“P. falciparum peptide (T* universal epitope of the CS protein)”: the IC50 with DR 13 molecules was found to be 1.8 µM.

As for MAB 2A10 (antibody), the inhibition in TSNA, about 25 µg antibody in test [1] worked out at 96%.

As usually defined, the IC50 is the point on the concentration scale where inhibition reaches its midpoint. The low end stands for higher potency, the high end for lower potency.
